For 4 molecules, interaction score results are on record in PMC10397247.

The target in one assay is T1, APC7099-AA.
T1 chain: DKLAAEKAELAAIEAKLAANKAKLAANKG
Nature of the assay: two-hybrid library CCmax.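 Also: natural log of median RNA to DNA barcode read ratio; higher means stronger binding.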 The note with it: mean of both orientations.

The target of a further assay is T2, APC9319-AA.
T2 chain: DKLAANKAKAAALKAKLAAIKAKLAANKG
Nature of the assay: two-hybrid library CCmax.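 Also: natural log of median RNA to DNA barcode read ratio; higher means stronger binding.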 Conditions: mean of both orientations.

Another assay addresses T3, APC6108-AA.
T3 chain: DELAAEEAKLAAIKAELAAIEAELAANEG
Nature of the assay: two-hybrid library CCmax.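 Also: natural log of median RNA to DNA barcode read ratio; higher means stronger binding.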 Conditions: mean of both orientations.

In the next assay the target is T4, APC5383-AA.
T4 chain: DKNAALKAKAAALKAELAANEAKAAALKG
The experiment in a line: two-hybrid library CCmax.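 Also: natural log of median RNA to DNA barcode read ratio; higher means stronger binding.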

Another assay deals with T5, APC8191-AA.
T5 chain: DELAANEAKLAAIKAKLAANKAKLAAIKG
The experiment in a line: two-hybrid library CCmax.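 Also: natural log of median RNA to DNA barcode read ratio; higher means stronger binding.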 Conditions: mean of both orientations.

The next assay has as its target T6, APC9096-AA.
T6 chain: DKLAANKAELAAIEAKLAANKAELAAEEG
Nature of the assay: two-hybrid library CCmax.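 Also: natural log of median RNA to DNA barcode read ratio; higher means stronger binding.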 The note with it: mean of both orientations.

For another assay, the target named is T7, APC8910-AA.
T7 chain: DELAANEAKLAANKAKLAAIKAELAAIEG
Nature of the assay: two-hybrid library CCmax. The note with it: mean of both orientations.

Another assay deals with T8, 4H687-bA.
T8 chain: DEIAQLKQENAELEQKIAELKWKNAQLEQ
Nature of the assay: two-hybrid library CCNG1.

For another assay, the target named is T9, 4H953-bA.
T9 chain: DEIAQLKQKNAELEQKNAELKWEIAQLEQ
The experiment in a line: two-hybrid library CCNG1.

In a further assay the target is T10, 4H72-bA.
T10 chain: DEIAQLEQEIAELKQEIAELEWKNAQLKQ
Nature of the assay: two-hybrid library CCNG1.

For another assay, the target named is T11, 4H918-bA.
T11 chain: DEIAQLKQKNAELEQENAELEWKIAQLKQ
Nature of the assay: two-hybrid library CCNG1.

The target in the next assay is T12, 4H967-bA.
T12 chain: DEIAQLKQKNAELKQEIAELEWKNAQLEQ
Nature of the assay: two-hybrid library CCNG1.

The next assay deals with T13, 4H607-bA.
T13 chain: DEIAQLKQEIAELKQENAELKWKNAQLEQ
Nature of the assay: two-hybrid library CCNG1.

The next assay addresses T14, 4H4001-bA.
T14 chain: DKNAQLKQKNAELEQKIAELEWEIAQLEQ
The experiment in a line: two-hybrid library CCNG1.

The target of the next assay is T15, 4H883-bA.
T15 chain: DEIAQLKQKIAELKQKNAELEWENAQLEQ
Nature of the assay: two-hybrid library CCNG1.

The target of a further assay is T16, 4H908-bA.
T16 chain: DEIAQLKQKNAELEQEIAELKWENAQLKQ
Nature of the assay: two-hybrid library CCNG1.

A further assay has as its target T17, 4H454-bA.
T17 chain: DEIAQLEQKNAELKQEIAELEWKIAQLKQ
The experiment in a line: two-hybrid library CCNG1.

In another assay the target is T18, 4H568-bA.
T18 chain: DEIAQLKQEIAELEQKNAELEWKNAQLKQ
Nature of the assay: two-hybrid library CCNG1.

In a further assay the target is T19, 4H3855-bA.
T19 chain: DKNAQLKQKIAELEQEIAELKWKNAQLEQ
Nature of the assay: two-hybrid library CCNG1.

A further assay addresses T20, 4H717-bA.
T20 chain: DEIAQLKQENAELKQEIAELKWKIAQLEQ
The experiment in a line: two-hybrid library CCNG1.

Another assay concerns the target T21, 4H797-bA.
T21 chain: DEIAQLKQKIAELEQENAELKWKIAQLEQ
Nature of the assay: two-hybrid library CCNG1.

The target in another assay is T22, 4H754-bA.
T22 chain: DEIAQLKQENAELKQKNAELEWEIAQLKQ
Nature of the assay: two-hybrid library CCNG1. The note with it: mean of both orientations.

The target of another assay is T23, 4H347-AA.
T23 chain: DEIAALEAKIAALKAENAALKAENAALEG
The experiment in a line: two-hybrid library CCmax. The note with it: mean of both orientations.

Another assay has as its target T24, 4H56-AA.
T24 chain: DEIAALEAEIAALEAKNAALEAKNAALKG
The experiment in a line: two-hybrid library CCmax. The note with it: mean of both orientations.

The target in a further assay is T25, 4H452-AA.
T25 chain: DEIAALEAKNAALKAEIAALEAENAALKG
Nature of the assay: two-hybrid library CCmax. The note with it: mean of both orientations.

Another assay deals with T26, 4H_APH.
T26 chain: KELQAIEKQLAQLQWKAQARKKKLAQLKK
Nature of the assay: two-hybrid library CCmax. Conditions: mean of both orientations.

In another assay the target is T27, 4H3073-AA.
T27 chain: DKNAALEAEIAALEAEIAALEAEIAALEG
The experiment in a line: two-hybrid library CCmax. Conditions: mean of both orientations.

Another assay has as its target 4H_GCN4. The experiment in a line: two-hybrid library CCmax.
The target in a further assay is T28, 4H_BCR.
T28 chain: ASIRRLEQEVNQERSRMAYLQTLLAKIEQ
The experiment in a line: two-hybrid library CCmax. The note with it: mean of both orientations.

The target of a further assay is T29, 4H3015-AA.
T29 chain: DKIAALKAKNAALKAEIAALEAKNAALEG
Nature of the assay: two-hybrid library CCmax.

Another assay concerns the target GCN2_T. Nature of the assay: two-hybrid library CCmax. Conditions: mean of both orientations.
The target of a further assay is T30, 4H406-AA.
T30 chain: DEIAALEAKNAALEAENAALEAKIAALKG
Nature of the assay: two-hybrid library CCmax. The note with it: mean of both orientations.

The target of a further assay is T31, 4H3438-AA.
T31 chain: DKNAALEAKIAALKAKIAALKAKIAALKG
Nature of the assay: two-hybrid library CCmax. The note with it: mean of both orientations.

The target of a further assay is T32, 4H3606-AA.
T32 chain: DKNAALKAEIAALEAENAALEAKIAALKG
Nature of the assay: two-hybrid library CCmax. Conditions: mean of both orientations.

A further assay has as its target T33, 4H32-AA.
T33 chain: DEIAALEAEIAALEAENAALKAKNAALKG
Nature of the assay: two-hybrid library CCmax. Conditions: mean of both orientations.

The target of another assay is T34, 4H3865-AA.
T34 chain: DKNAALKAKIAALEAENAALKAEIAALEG
The experiment in a line: two-hybrid library CCmax. The note with it: mean of both orientations.

A further assay concerns the target T35, 4H3631-AA.
T35 chain: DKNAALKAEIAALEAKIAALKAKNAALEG
The experiment in a line: two-hybrid library CCmax. The note with it: mean of both orientations.

The next assay addresses T36, 4H3413-AA.
T36 chain: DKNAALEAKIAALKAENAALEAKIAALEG
The experiment in a line: two-hybrid library CCmax. The note with it: mean of both orientations.

The next assay concerns the target T37, 4H3588-AA.
T37 chain: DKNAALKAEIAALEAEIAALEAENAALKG
The experiment in a line: two-hybrid library CCmax. Conditions: mean of both orientations.

In a further assay the target is T38, 4H3697-AA.
T38 chain: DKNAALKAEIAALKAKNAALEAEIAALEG
Nature of the assay: two-hybrid library CCmax. Conditions: mean of both orientations.

A further assay concerns the target T39, 4H3718-AA.
T39 chain: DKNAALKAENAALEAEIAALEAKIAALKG
Nature of the assay: two-hybrid library CCmax. The note with it: mean of both orientations.

The target in a further assay is T40, 4H3378-AA.
T40 chain: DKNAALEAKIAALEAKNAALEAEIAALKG
The experiment in a line: two-hybrid library CCmax. Conditions: mean of both orientations.

Another assay concerns the target T41, 4H3162-AA.
T41 chain: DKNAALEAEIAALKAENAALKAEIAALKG
Nature of the assay: two-hybrid library CCmax. The note with it: mean of both orientations.

The target in the next assay is T42, 4H3133-AA.
T42 chain: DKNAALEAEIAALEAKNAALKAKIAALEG
The experiment in a line: two-hybrid library CCmax.

In the next assay the target is T43, 4H340-AA.
T43 chain: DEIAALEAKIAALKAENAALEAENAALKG
The experiment in a line: two-hybrid library CCmax. Conditions: mean of both orientations.

The next assay concerns the target T44, 4H697-AA.
T44 chain: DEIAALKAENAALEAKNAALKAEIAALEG
Nature of the assay: two-hybrid library CCmax. The note with it: mean of both orientations.

The target of a further assay is T45, 4H384-AA.
T45 chain: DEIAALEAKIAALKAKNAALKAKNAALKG
Nature of the assay: two-hybrid library CCmax. Conditions: mean of both orientations.

The next assay concerns the target T46, 4H982-AA.
T46 chain: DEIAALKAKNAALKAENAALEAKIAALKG
Nature of the assay: two-hybrid library CCmax. The note with it: mean of both orientations.

Chain of 4H_GCN4 (chain, as listed by the source): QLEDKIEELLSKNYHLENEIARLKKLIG

Turning to DKNAALKAKAAALKAELAANEAKAAALKG [APC5383-AA], the interaction score in the assay with APC7099-AA is -1.61; in the assay with APC9319-AA, -2.03; in the assay with APC6108-AA it was -1.32; with APC5383-AA, -1.83; in the assay with APC8191-AA, -2.31; in the assay with APC9096-AA, -1.73. Further, the interaction score with APC8910-AA is -1.6.
For DKNAQLKQKIAELEQEIAELKWKNAQLEQ [4H3855-bA], the interaction score in the assay with 4H687-bA was -0.551; with 4H953-bA it was -1.69; in the assay with 4H72-bA, 0.932; in the assay with 4H918-bA, -1.43; with 4H967-bA it was -0.636; in the assay with 4H607-bA it was -0.96. Also, the interaction score in the assay with 4H4001-bA was 0.153; in the assay with 4H883-bA, -1.04; with 4H908-bA, -0.51; with 4H454-bA, -0.709; with 4H568-bA, -0.231; with 4H3855-bA it was 0.372. Also, the interaction score with 4H717-bA is -0.336; with 4H797-bA it was -0.875; in the assay with 4H754-bA it was -1.21.
With DKIAALKAKNAALKAEIAALEAKNAALEG [4H3015-AA], the interaction score in the assay with 4H347-AA is -1.96; with 4H56-AA, -1.59; with 4H452-AA it was -1.36; in the assay with 4H_APH, -2.92; in the assay with 4H3073-AA, 0.065; with 4H_GCN4 it was -1.28. The interaction score with 4H_BCR is -1.81; with 4H3015-AA, -1.16; in the assay with GCN2_T, -1.44; with 4H406-AA it was -0.891; with 4H3438-AA it was -1.63.
Turning to DKNAALEAEIAALEAKNAALKAKIAALEG [4H3133-AA], the interaction score in the assay with 4H3606-AA is 1.29; in the assay with 4H32-AA, -1.83; in the assay with 4H3865-AA, 0.466; in the assay with 4H3631-AA it was -0.654; with 4H3413-AA it was 1.97; with 4H3588-AA, -1.47. Also, the interaction score in the assay with 4H3697-AA was -0.244; in the assay with 4H3718-AA it was -0.85; with 4H3378-AA it was -1.1; with 4H3162-AA it was -1.24; with 4H3133-AA, -0.726; in the assay with 4H340-AA, -0.539. The interaction score is -1.6 in the assay with 4H697-AA, -1.58 with 4H384-AA and 0.112 with 4H982-AA.
